Assay results reported in article PMC8421203 (Nucleic Acids Research, 2021).
Substitutions are numbered along the chain they refer to. Blank lines part the entries; values can stand above or below the molecule they belong to.

Legend:
[1] = target: Zebrafish PHF14PZP (278–487) (zebrafish); test: ITC
[2] = target: PHF14 PZP domain, 278-487; test: ITC; conditions: reference: unmodified H3(1-15) peptide; sites T3
PHF14PZP E301A = target: T1, PHF14PZP E301A (zebrafish, UniProt A0A286Y9D1 278-487, E301A); test: ITC
T1 sequence: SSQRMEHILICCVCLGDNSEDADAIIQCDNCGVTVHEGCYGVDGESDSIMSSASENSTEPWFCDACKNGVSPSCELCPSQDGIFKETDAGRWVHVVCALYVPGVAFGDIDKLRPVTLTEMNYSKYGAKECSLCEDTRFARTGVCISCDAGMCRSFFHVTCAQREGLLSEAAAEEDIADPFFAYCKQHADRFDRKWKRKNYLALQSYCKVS

[3] = target: T2, Zebrafish PHF14PZP (278–487) (zebrafish, UniProt A0A286Y9D1 278-487); test: crystal structure
T2 sequence: T1 sequence with A24E

Thermal shift assay = type: physicochemical; conditions: 2 mg/ml protein, 5× Sypro Orange, 100 mM NaCl, 20 mM HEPES-Na pH 7.5, 25°C to 90°C at 0.5°C per minute

Kd [1]: 12.7 µM
Molecule: unmodified histone H3(1–15) peptide (from UniProt P68431 2-16)

KD [2]: lost; reference 12.7
Molecule: histone H3 1-15 (from UniProt P68431) H3(1-15) T3ph peptide

fold decrease of affinity against wild-type PHF14PZP (PHF14PZP E301A): ~28 fold
Molecule: ARTKQTARKSTGGKA [unmodified histone H3(1–15) peptide]

The remaining lines, values behind:

Molecule: ARTKQTARKSTGG [histone H3(1–13), as joined to PHF14PZP in the fusion protein]
binding result [3]: binds

B1: H3(1–13)-PHF14PZP: chimeric protein: H3(1–13) fused to the N-terminus of PHF14PZP (aa 278–487) through an 'SGSGS' linker (protein)
chain: ARTKQTARKSTGGSGSGSSSQRMEHILICCVCLGDNSEDADEIIQCDNCGVTVHEGCYGVDGESDSIMSSASENSTEPWFCDACKNGVSPSCELCPSQDGIFKETDAGRWVHVVCALYVPGVAFGDIDKLRPVTLTEMNYSKYGAKECSLCEDTRFARTGVCISCDAGMCRSFFHVTCAQREGLLSEAAAEEDIADPFFAYCKQHADRFDRKWKRKNYLALQSYCKVS
modifications: left off: 10xHis-SUMO, N-terminal, cleaved
positive Tm shift versus free state PHF14PZP (Thermal shift assay): 3.2 °C
